Tested on: retinoic acid receptor
Assay: Retinoic acid receptor dependent transactivation (retinoic acid β promoter-luciferase reporter)
Assay type: cell-based
Details: MCF-7 breast cancer cells transfected with reporter plasmid and wild-type or stable (S37A) mutant β-catenin; 9-cis retinoic acid, various doses, 48 hours
Protocol: FIG. 1 is a histogram depicting the enhancement of retinoic acid receptor-dependent transactivation by β-catenin. Luciferase activity, shown in relative light units, is illustrated for MCF-7 breast cancer cells transfected with the retinoic acid β promoter-luciferase reporter plasmid and a wild-type or a stable (S37A) mutant form of β-catenin (or vector alone, as a control) and treated with the indicated doses of 9-cis retinoic acid for 48 hours.
MCF-7 breast cancer cells were transfected with the retinoic acid β promoter-luciferase reporter plasmid and a wild-type or a stable (S37A) mutant form of β-catenin (see Orford et al., J. Biol. Chem. 272:24735-24738, 1997), and treated with various doses of 9-cis retinoic acid for 48 hours. The results, presented in FIG. 1, illustrate the activity of the reporter, measured in relative light units.

activity of the reporter (luciferase activity, relative light units): augment the activity of the reporter
B1: β-catenin: cytoplasmic protein, expressed in cells by transfection as wild-type or stable (S37A) mutant form (protein, UniProt P35222 2-781, looked up)
Catenin beta-1: ATQADLMELDMAMEPDRKAAVSHWQQQSYLDSGIHSGATTTAPSLSGKGNPEEEDVDTSQVLYEWEQGFSQSFTQEQVADIDGQYAMTRAQRVRAAMFPETLDEGMQIPSTQFDAAHPTNVQRLAEPSQMLKHAVVNLINYQDDAELATRAIPELTKLLNDEDQVVVNKAAVMVHQLSKKEASRHAIMRSPQMVSAIVRTMQNTNDVETARCTAGTLHNLSHHREGLLAIFKSGGIPALVKMLGSPVDSVLFYAITTLHNLLLHQEGAKMAVRLAGGLQKMVALLNKTNVKFLAITTDCLQILAYGNQESKLIILASGGPQALVNIMRTYTYEKLLWTTSRVLKVLSVCSSNKPAIVEAGGMQALGLHLTDPSQRLVQNCLWTLRNLSDAATKQEGMEGLLGTLVQLLGSDDINVVTCAAGILSNLTCNNYKNKMMVCQVGGIEALVRTVLRAGDREDITEPAICALRHLTSRHQEAEMAQNAVRLHYGLPVVVKLLHPPSHWPLIKATVGLIRNLALCPANHAPLREQGAIPRLVQLLVRAHQDTQRRTSMGGTQQQFVEGVRMEEIVEGCTGALHILARDVHNRIVIRGLNTIPLFVQLLYSPIENIQRVAAGVLCELAQDKEAAEAIEAEGATAPLTELLHSRNEGVATYAAAVLFRMSEDKPQDYKKRLSVELTSSLFRTEPMAWNETADLGLDIGAQGEPLGYRQDDPSYRSFHSGGYGQDALGMDPMMEHEMGGHHPGADYPVDGLPDLGHAQDLMDGLPPGDSNQLAWFDTDL

Source: patent publication US20040254099A1, “Compounds and methods for modulating beta-catenin mediated gene expression” (Adherex Technologies, Inc., priority 1999, published 2004)
